Laboratory results: US20020081293A1

Assays:
[1] = molecular target: human factor D purified from human serum (human) (UniProt P00746); experiment: cell-based or functional assay
[2] = molecular target: dog factor D (in serum) (dog); experiment: cell-based or functional assay; conditions: scale: times less effective than on human factor D
[3] = molecular target: human factor D purified from human serum (human) (UniProt P00746); experiment: SPR (BIAcore), factor D amine-coupled to the chip, MAb 166-32 as analyte
[4] = molecular target: human factor D purified from human serum (human) (UniProt P00746); experiment: SPR (BIAcore), MAb captured by rabbit anti-mouse IgG, factor D as analyte

UniProt P00746, sequence (P00746 26-253): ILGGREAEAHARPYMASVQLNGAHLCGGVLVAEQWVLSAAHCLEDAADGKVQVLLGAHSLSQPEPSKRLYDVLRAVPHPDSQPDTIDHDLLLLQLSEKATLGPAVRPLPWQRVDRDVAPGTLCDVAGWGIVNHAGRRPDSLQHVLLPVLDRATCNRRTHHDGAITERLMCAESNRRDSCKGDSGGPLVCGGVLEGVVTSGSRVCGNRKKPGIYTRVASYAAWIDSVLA

## monoclonal antibody 166-32
[1]
  inhibition of factor D dependent hemolysis of unsensitized rabbit RBCs (factor D depleted human serum with 0.1 µg/ml supplemented factor D): 0.3 µg/mL
  molar ratio for complete inhibition of alternative complement activity in extracorporeal circuit plasma (18 µg/ml MAb) (molar ratio (MAb : factor D)): 1.5
  molar ratio for inhibition of factor D dependent hemolysis (molar ratio (MAb 166-32 to factor D)): 0.5
[2]
  neutralization of dog factor D in hemolytic assays, against human factor D: 10
[3]
  Kd: 0.16 nM
  koff: 7.6e-05 s⁻¹
  kon: 460000 M⁻¹ s⁻¹
[4]
  Kd: < 0.1 nM
  koff: 0.00011 s⁻¹
  kon: > 1e+06 M⁻¹ s⁻¹
